From the Immune Epitope Database (IEDB)
Blank lines part the entries; values can stand above or below the sequence they belong to.

Columns and labels:
HLA-B*15:02 = test: IEDB peptide-MHC binding, purified MHC/direct/fluorescence; filed as Kd, often an IC50 or EC50 that approximates it; ≥ and ≤ were set here for values at or beyond the usual limits of such assays
HLA-B*46:01 = test: as above
HLA-A*30:02 = test: IEDB peptide-MHC binding, purified MHC/competitive/radioactivity; filed as Kd, often an IC50 or EC50 that approximates it; ≥ and ≤ were set here for values at or beyond the usual limits of such assays; details: source organism: Dengue virus 3 Martinique/1243/1999
HLA-A*26:01 [1] = test: IEDB peptide-MHC binding, purified MHC/competitive/fluorescence; filed as Kd, often an IC50 or EC50 that approximates it; ≥ and ≤ were set here for values at or beyond the usual limits of such assays; details: source organism: Orthomarburgvirus marburgense
HLA-A*11:01 [2] = test: as above; details: source organism: Orthomarburgvirus marburgense
HLA-A*30:01 = test: as above; details: source organism: Orthomarburgvirus marburgense
HLA-A*02:03 = test: as above
HLA-A*02:01 [3] = test: as above; details: source organism: Orthomarburgvirus marburgense
HLA-A*31:01 [4] = test: as above; details: source organism: Orthomarburgvirus marburgense
HLA-B*57:01 [5] = test: IEDB peptide-MHC binding, purified MHC/direct/fluorescence; filed as Kd, often an IC50 or EC50 that approximates it; ≥ and ≤ were set here for values at or beyond the usual limits of such assays
HLA-B*07:02 = test: as above
HLA-B*48:01 = test: as above
HLA-A*69:01 = test: as above
HLA-B*08:01 = test: as above
HLA-A*68:02 [6] = test: as above; details: source organism: Marburg virus - Musoke, Kenya, 1980
HLA-B*15:17 [7] = test: as above
HLA-A*01:01 = test: as above
HLA-B*15:01 = test: as above
HLA-B*58:01 = test: as above
HLA-B*27:05 = test: as above
HLA-A*02:06 = test: IEDB peptide-MHC binding, purified MHC/competitive/fluorescence; filed as Kd, often an IC50 or EC50 that approximates it; ≥ and ≤ were set here for values at or beyond the usual limits of such assays; details: source organism: Corynebacterium glutamicum ATCC 13032
HLA-A*02:11 = test: as above; details: source organism: Corynebacterium glutamicum ATCC 13032
HLA-A*02:12 = test: as above; details: source organism: Corynebacterium glutamicum ATCC 13032
HLA-A*02:50 = test: as above; details: source organism: Corynebacterium glutamicum ATCC 13032
HLA-A*03:01 = test: IEDB peptide-MHC binding, purified MHC/direct/fluorescence; filed as Kd, often an IC50 or EC50 that approximates it; ≥ and ≤ were set here for values at or beyond the usual limits of such assays
HLA-A*26:01 [8] = test: as above; details: source organism: Corynebacterium glutamicum
HLA-B*40:01 = test: as above
HLA-A*11:01 [9] = test: as above
HLA-A*02:01 [10] = test: as above
HLA-A*31:01 [11] = test: as above
HLA-B*57:01 [12] = test: IEDB peptide-MHC binding, purified MHC/competitive/fluorescence; ≥ and ≤ were set here for values at or beyond the usual limits of such assays; details: source organism: Homo sapiens
HLA-B*73:01 = test: IEDB peptide-MHC binding, purified MHC/competitive/fluorescence; filed as Kd, often an IC50 or EC50 that approximates it; ≥ and ≤ were set here for values at or beyond the usual limits of such assays; details: source organism: Brucella abortus S19
HLA-B*39:01 = test: as above; details: source organism: Vibrio cholerae 2740-80
HLA-B*15:09 = test: as above; details: source organism: Vibrio cholerae 2740-80
HLA-B*18:01 = test: IEDB peptide-MHC binding, purified MHC/direct/fluorescence; filed as Kd, often an IC50 or EC50 that approximates it; ≥ and ≤ were set here for values at or beyond the usual limits of such assays
HLA-B*51:01 = test: as above; details: source organism: Vibrio cholerae
HLA-B*08:02 = test: as above; details: source organism: Vibrio cholerae V52
HLA-A*26:02 = test: IEDB peptide-MHC binding, purified MHC/competitive/fluorescence; filed as Kd, often an IC50 or EC50 that approximates it; ≥ and ≤ were set here for values at or beyond the usual limits of such assays; details: source organism: Vaccinia virus Tian Tan
HLA-A*68:02 [13] = test: as above; details: source organism: Vaccinia virus Tian Tan
HLA-B*15:17 [14] = test: as above; details: source organism: Vaccinia virus Tian Tan
HLA-A*26:03 = test: IEDB peptide-MHC binding, purified MHC/direct/fluorescence; filed as Kd, often an IC50 or EC50 that approximates it; ≥ and ≤ were set here for values at or beyond the usual limits of such assays; details: source organism: Variola virus
HLA-B*44:02 = test: as above; details: source organism: Camelpox virus CMS
[15] = source organism: dengue virus type 3
[16] = source organism: Marburg virus - Musoke, Kenya, 1980
[17] = source organism: Ravn virus - Ravn, Kenya, 1987
[18] = source organism: Corynebacterium glutamicum
[19] = source organism: Vibrio cholerae
[20] = source organism: Camelpox virus CMS

Sequence: KQIANELNY
- Kd (HLA-B*15:02; [15]): ≥ 20 µM
- Kd (HLA-B*46:01; [15]): ≥ 20 µM
- Kd (HLA-A*30:02): ≥ 76.9 µM

Sequence: ALFHKVQSY
- Kd (HLA-A*26:01 [1]): 1.14 µM
- Kd (HLA-A*11:01 [2]): 1.94 µM
- Kd (HLA-A*30:01): 0.438 µM
- Kd (HLA-A*02:03; source organism: Orthomarburgvirus marburgense): 1.56 µM
- Kd (HLA-A*02:01 [3]): 1.31 µM
- Kd (HLA-A*31:01 [4]): 3.92 µM
- Kd (HLA-B*57:01 [5]; [16]): ≥ 20 µM
- Kd (HLA-B*15:02; [17]): 0.038 µM
- Kd (HLA-B*07:02; [16]): ≥ 20 µM
- Kd (HLA-B*48:01; [16]): ≥ 20 µM
- Kd (HLA-A*69:01; [16]): ≥ 20 µM
- Kd (HLA-B*46:01; [16]): ≥ 20 µM
- Kd (HLA-B*08:01; [17]): ≥ 20 µM
- Kd (HLA-A*68:02 [6]): ≥ 20 µM
- Kd (HLA-B*15:17 [7]; [16]): 0.0046 µM
- Kd (HLA-A*01:01; [16]): ≥ 20 µM
- Kd (HLA-B*15:01; [16]): 0.0205 µM
- Kd (HLA-B*58:01; [16]): ≥ 20 µM
- Kd (HLA-B*27:05; [16]): ≥ 20 µM

- Kd (HLA-A*02:06): ≤ 0.0001 µM
- Kd (HLA-A*02:11): ≤ 0.0001 µM
- Kd (HLA-A*02:12): ≤ 0.0001 µM
- Kd (HLA-A*02:03; source organism: Corynebacterium glutamicum ATCC 13032): ≤ 0.0001 µM
- Kd (HLA-A*02:50): ≤ 0.0001 µM
- Kd (HLA-B*07:02; [18]): ≥ 20 µM
- Kd (HLA-A*69:01; [18]): 0.404 µM
- Kd (HLA-B*08:01; [18]): ≥ 20 µM
- Kd (HLA-A*03:01; [18]): ≥ 20 µM
- Kd (HLA-A*26:01 [8]): ≥ 20 µM
- Kd (HLA-B*40:01; [18]): ≥ 20 µM
- Kd (HLA-A*11:01 [9]; [18]): ≥ 20 µM
- Kd (HLA-A*01:01; [18]): ≥ 20 µM
- Kd (HLA-B*15:01; [18]): ≥ 20 µM
- Kd (HLA-B*58:01; [18]): ≥ 20 µM
- Kd (HLA-A*02:01 [10]; [18]): 0.0728 µM
- Kd (HLA-B*27:05; [18]): ≥ 20 µM
- Kd (HLA-A*31:01 [11]; [18]): ≥ 20 µM
Sequence: FLPGQYMNI

- IC50 (HLA-B*57:01 [12]): 0.853 µM
Sequence: STIRLLTSL

Sequence: NEAWGKKPV
- Kd (HLA-B*73:01): ≥ 20 µM

Sequence: FPLTQRDVL
- Kd (HLA-B*39:01): 0.0144 µM
- Kd (HLA-B*15:09): 0.358 µM
- Kd (HLA-B*57:01 [5]; [19]): ≥ 20 µM
- Kd (HLA-B*07:02; [19]): 0.046 µM
- Kd (HLA-B*48:01; [19]): ≥ 20 µM
- Kd (HLA-A*69:01; [19]): 0.719 µM
- Kd (HLA-B*46:01; [19]): ≥ 20 µM
- Kd (HLA-B*18:01; [19]): 1.9 µM
- Kd (HLA-A*03:01; [19]): ≥ 20 µM
- Kd (HLA-B*40:01; [19]): ≥ 20 µM
- Kd (HLA-B*51:01): 2.82 µM
- Kd (HLA-A*11:01 [9]; [19]): ≥ 20 µM
- Kd (HLA-B*15:17 [7]; [19]): ≥ 20 µM
- Kd (HLA-A*01:01; [19]): ≥ 20 µM
- Kd (HLA-B*15:01; [19]): ≥ 20 µM
- Kd (HLA-B*58:01; [19]): ≥ 20 µM
- Kd (HLA-B*08:02): ≥ 20 µM
- Kd (HLA-A*02:01 [10]; [19]): ≥ 20 µM
- Kd (HLA-B*27:05; [19]): ≥ 20 µM
- Kd (HLA-A*31:01 [11]; [19]): ≥ 20 µM

Sequence: REVFYFGKF
- Kd (HLA-A*26:02): 2.35 µM
- Kd (HLA-A*68:02 [13]): 3.04 µM
- Kd (HLA-B*15:17 [14]): ≥ 20 µM
- Kd (HLA-B*57:01 [5]; [20]): ≥ 20 µM
- Kd (HLA-A*26:03): ≥ 20 µM
- Kd (HLA-B*07:02; [20]): ≥ 20 µM
- Kd (HLA-B*48:01; [20]): ≥ 20 µM
- Kd (HLA-A*69:01; [20]): ≥ 20 µM
- Kd (HLA-B*18:01; [20]): 0.813 µM
- Kd (HLA-B*40:01; [20]): 0.0617 µM
- Kd (HLA-A*11:01 [9]; [20]): ≥ 20 µM
- Kd (HLA-A*01:01; [20]): ≥ 20 µM
- Kd (HLA-B*58:01; [20]): ≥ 20 µM
- Kd (HLA-B*44:02): ≥ 20 µM
- Kd (HLA-A*02:01 [10]; [20]): ≥ 20 µM
- Kd (HLA-B*27:05; [20]): ≥ 20 µM
- Kd (HLA-A*31:01 [11]; [20]): ≥ 20 µM
